Literature values in publication PMC4443854.

Target: actin filaments (F-actin) (Oryctolagus cuniculus) (UniProt P68135)

In the case of AIP1 (from UniProt O75083), the Kd is given as 2500 nM.
